Assay results from patent publication WO2008140316A1.

Target: human CD40 receptor on monocytes (human) (UniProt P25942)
Experiment: cell-based or functional assay

Sequence of UniProt P25942 (P25942 21-277): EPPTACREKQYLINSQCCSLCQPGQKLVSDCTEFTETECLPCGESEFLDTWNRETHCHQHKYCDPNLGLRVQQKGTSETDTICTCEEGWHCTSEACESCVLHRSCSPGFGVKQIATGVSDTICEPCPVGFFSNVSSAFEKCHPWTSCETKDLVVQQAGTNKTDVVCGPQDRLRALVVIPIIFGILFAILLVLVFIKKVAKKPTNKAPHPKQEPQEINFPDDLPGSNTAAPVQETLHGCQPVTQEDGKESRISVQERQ

## clone 64 (agonist anti-human CD40 monoclonal antibody, PanGenetics, The Netherlands)
  IL-1β (pg/mL), Clone 64+IFN-γ, MDS CD14+ cells (Table 3): 18 pg/mL
  IL-1β (pg/mL), Clone 64+IFN-γ, donor CD14+ cells (Table 3): 13 pg/mL
  IL-6 (pg/mL), Clone 64+IFN-γ, MDS CD14+ cells (Table 3): 1210 pg/mL
  IL-6 (pg/mL), Clone 64+IFN-γ, donor CD14+ cells (Table 3): 1490 pg/mL
  IL-10 (pg/mL), Clone 64+IFN-γ, MDS CD14+ cells (Table 3): 1650 pg/mL
  IL-10 (pg/mL), Clone 64+IFN-γ, donor CD14+ cells (Table 3): 1170 pg/mL
  TNF-α (pg/mL), Clone 64+IFN-γ, MDS CD14+ cells (Table 3): 293 pg/mL
  TNF-α (pg/mL), Clone 64+IFN-γ, donor CD14+ cells (Table 3): 52 pg/mL
  TNF-α production by CD14+ monocytes from MDS patients, clone 64 + IFN-γ, 24 h, ELISA: 449 pg/mL
  TNF-α production by CD14+ monocytes from normal controls, clone 64 + IFN-γ, 24 h, ELISA: 67 pg/mL
